Results taken from article PMC9352680, “A comprehensive thermodynamic model for RNA binding by the Saccharomyces cerevisiae Pumilio protein PUF4”.

T1: PUF4 RNA-binding domain (Saccharomyces cerevisiae, UniProt P25339 537-888)
T1 sequence: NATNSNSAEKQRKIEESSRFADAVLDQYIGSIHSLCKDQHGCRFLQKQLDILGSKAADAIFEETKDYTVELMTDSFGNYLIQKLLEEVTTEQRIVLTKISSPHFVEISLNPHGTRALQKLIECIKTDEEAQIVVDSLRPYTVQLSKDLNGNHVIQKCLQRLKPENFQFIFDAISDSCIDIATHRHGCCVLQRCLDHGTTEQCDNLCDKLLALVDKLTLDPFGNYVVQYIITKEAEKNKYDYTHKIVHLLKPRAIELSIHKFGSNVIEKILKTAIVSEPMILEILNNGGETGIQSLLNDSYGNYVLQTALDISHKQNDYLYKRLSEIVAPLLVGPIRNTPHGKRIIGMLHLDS

B1: Id_ii_S1_P3E.2_K3.1_C3.2_H3.1_A3.1_F3.1_T3.2_[T9C]_[A10T] (ssRNA)
RNA: UCUCUUCUUGUAUAUACUUCUCUU
B2: Id_ii_S1_P3E.2_K3.1_C3.2_H3.1_A3.1_F3.1_T3.2 (ssRNA)
RNA: UCUCUUCUUGUAUAUAUAUCUCUU
B3: Id_ii_S1_P3E.3_K3.2_C3.2_[C-2G]_H3.2_A3.1_F3.1_T3.2_[T9C]_[A10C] (ssRNA)
RNA: UCUCUUGUUAUAUAUACCUCUCUU
B4: Id_ii_S1_P3E.3_K3.2_C3.2_[C-2G]_[T-1G]_H3.2_A3.1_F3.1_T3.2_[T9A]_[A10T] (ssRNA)
RNA: UCUCUUGGUAUAUAUAAUUCUCUU
B5: Id_ii_S1_P3E.3_K3.2_C3.2_[C-2T]_[T-1C]_H3.2_A3.1_F3.1_T3.2_[T9G]_[A10T] (ssRNA)
RNA: UCUCUUUCUAUAUAUAGUUCUCUU
B6: Id_ii_S1_P3E.3_K3.2_C3.2_[C-2T]_[T-1G]_H3.2_A3.1_F3.1_T3.2_[A10T] (ssRNA)
RNA: UCUCUUUGUAUAUAUAUUUCUCUU
B7: Id_ii_S1_P3E.3_K3.2_C3.2_[C-2T]_[T-1C]_H3.2_A3.1_F3.1_T3.2_[T9A]_[A10C] (ssRNA)
RNA: UCUCUUUCUAUAUAUAACUCUCUU
B8: Id_ii_S1_P3E.3_K3.2_C3.2_[C-2T]_[T-1C]_H3.2_A3.1_F3.1_T3.2_[T9C] (ssRNA)
RNA: UCUCUUUCUAUAUAUACAUCUCUU
B9: Id_ii_S1_P3E.3_K3.2_C3.2_[C-2T]_[T-1G]_H3.2_A3.1_F3.1_T3.2_[T9G]_[A10C] (ssRNA)
RNA: UCUCUUUGUAUAUAUAGCUCUCUU
B10: Id_ii_S1_P3E.2_K3.1_C3.2_H3.1_A3.1_F3.1_T3.2_[T9A]_[A10T] (ssRNA)
RNA: UCUCUUCUUGUAUAUAAUUCUCUU
B11: Id_ii_S1_P3E.3_K3.2_C3.2_[C-2T]_[T-1A]_H3.2_A3.1_F3.1_T3.2_[T9G]_[A10T] (ssRNA)
RNA: UCUCUUUAUAUAUAUAGUUCUCUU
B12: Id_ii_S1_P3E.3_K3.2_C3.2_[C-2G]_H3.2_A3.1_F3.1_T3.2_[T9G]_[A10T] (ssRNA)
RNA: UCUCUUGUUAUAUAUAGUUCUCUU
B13: Id_ii_S1_P3E.2_K3.1_C3.2_H3.1_A3.1_F3.1_T3.2_[T9G]_[A10T] (ssRNA)
RNA: UCUCUUCUUGUAUAUAGUUCUCUU
B14: Id_ii_S1_P3E.3_K3.2_C3.2_[C-2G]_[T-1A]_H3.2_A3.1_F3.1_T3.2_[T9C]_[A10C] (ssRNA)
RNA: UCUCUUGAUAUAUAUACCUCUCUU
B15: Id_ii_S1_P3E.3_K3.2_C3.2_[C-2T]_[T-1C]_H3.2_A3.1_F3.1_T3.2_[A10G] (ssRNA)
RNA: UCUCUUUCUAUAUAUAUGUCUCUU
B16: Id_ii_S1_P3E.3_K3.2_C3.2_[C-2T]_[T-1G]_H3.2_A3.1_F3.1_T3.2_[T9A]_[A10T] (ssRNA)
RNA: UCUCUUUGUAUAUAUAAUUCUCUU
B17: Id_ii_S1_P3E.3_K3.2_C3.2_[C-2T]_[T-1C]_H3.2_A3.1_F3.1_T3.2_[T9G]_[A10C] (ssRNA)
RNA: UCUCUUUCUAUAUAUAGCUCUCUU
B18: Id_ii_S1_P3E.2_K3.1_C3.2_H3.1_A3.1_F3.1_T3.2_[A10G] (ssRNA)
RNA: UCUCUUCUUGUAUAUAUGUCUCUU
B19: Ib_S1_P4E.1_K4.1_C4.1_H4.1_[T1C]_A4.1_[T5C]_F4.1_T4.1 (ssRNA)
RNA: UCUCUUCGUACAUUAUCUCUU
B20: Id_ii_S1_P3E.3_K3.2_C3.2_[C-2T]_[T-1G]_H3.2_A3.1_F3.1_T3.2_[T9C]_[A10C] (ssRNA)
RNA: UCUCUUUGUAUAUAUACCUCUCUU
B21: Id_ii_S1_P3E.2_K3.1_C3.2_H3.1_A3.1_F3.1_T3.2_[T9C]_[A10G] (ssRNA)
RNA: UCUCUUCUUGUAUAUACGUCUCUU
B22: Id_ii_S1_P3E.2_K3.1_C3.2_H3.1_A3.1_F3.1_T3.2_[A10C] (ssRNA)
RNA: UCUCUUCUUGUAUAUAUCUCUCUU
B23: Id_ii_S1_P3E.3_K3.2_C3.2_[C-2G]_[T-1G]_H3.2_A3.1_F3.1_T3.2_[T9A]_[A10C] (ssRNA)
RNA: UCUCUUGGUAUAUAUAACUCUCUU
B24: Id_ii_S1_P3E.2_K3.1_C3.2_H3.1_A3.1_F3.1_T3.2_[T9A] (ssRNA)
RNA: UCUCUUCUUGUAUAUAAAUCUCUU
B25: Id_ii_S1_P3E.3_K3.2_C3.2_[C-2T]_[T-1G]_H3.2_A3.1_F3.1_T3.2_[T9G]_[A10T] (ssRNA)
RNA: UCUCUUUGUAUAUAUAGUUCUCUU
B26: Id_ii_S1_P3E.3_K3.2_C3.2_[C-2G]_[T-1C]_H3.2_A3.1_F3.1_T3.2_[T9A]_[A10C] (ssRNA)
RNA: UCUCUUGCUAUAUAUAACUCUCUU
B27: Ib_S1_P4E.1_K4.1_C4.1_H4.1_[T1C]_A4.1_[T5A]_F4.1_T4.1 (ssRNA)
RNA: UCUCUUCGUAAAUUAUCUCUU
B28: Id_ii_S1_P3E.3_K3.2_C3.2_[C-2G]_[T-1A]_H3.2_A3.1_F3.1_T3.2_[T9G]_[A10C] (ssRNA)
RNA: UCUCUUGAUAUAUAUAGCUCUCUU
B29: Id_ii_S1_P3E.2_K3.1_C3.2_[T-1A]_H3.1_A3.1_F3.1_T3.2_[A10C] (ssRNA)
RNA: UCUCUUCAUGUAUAUAUCUCUCUU
B30: Id_ii_S1_P3E.2_K3.1_C3.2_[T-1A]_H3.1_A3.1_F3.1_T3.2_[T9A] (ssRNA)
RNA: UCUCUUCAUGUAUAUAAAUCUCUU
B31: Id_ii_S1_P3E.3_K3.2_C3.2_[C-2T]_[T-1A]_H3.2_A3.1_F3.1_T3.2_[T9C]_[A10T] (ssRNA)
RNA: UCUCUUUAUAUAUAUACUUCUCUU

The binders below were run against T1, PUF4 RNA-binding domain (assay: Mg; RNA-MaP; 20 mM Na-HEPES pH 7.4, 30 mM KOAc, 0.75 mM MgCl2, 0.1% Tween-20, 5% glycerol, 0.1 mg/mL BSA, 2 mM DTT; 25 C; 0.0125-409.6 nM protein). Details: tags: N-His6-TEV cleaved; C-SNAP kept, Cy3B-labelled; label: tethered on chip by stalled RNA polymerase.

| Binder | Kd [nM] |
| --- | --- |
| B1 | 7.04 |
| B2 | 3.83 |
| B3 | 35.9 |
| B4 | 524 |
| B5 | 771 |
| B6 | 5 |
| B7 | 960 |
| B8 | 1030 |
| B9 | 3.66 |
| B10 | 8.3 |
| B11 | 140 |
| B12 | 12.1 |
| B13 | 3.72 |
| B14 | 1310 |
| B15 | 1210 |
| B16 | 8.44 |

| Binder | Kd [nM] |
| --- | --- |
| B17 | 620 |
| B18 | 12.2 |
| B19 | 16.8 |
| B20 | 10 |
| B21 | 10.9 |
| B22 | 6.72 |
| B23 | 782 |
| B24 | 8.21 |
| B25 | 2.33 |
| B26 | 1500 |
| B27 | 139 |
| B28 | 500 |
| B29 | 8.05 |
| B30 | 13.1 |
| B31 | 172 |
